We go through two molecules from US20240317865A1 (MOMENTA PHARMACEUTICALS, published 2024).

Test [1] addresses T1, α11β1 on human myofibroblasts (MF) (human, UniProt Q9UKX5 23-1188; P05556 21-798).
T1 construct: whole, on cells; Human pulmonary fibroblasts treated with TGFβ
Kind of test: FACS (PE) on human myofibroblasts, histogram.

Test [2] addresses T2, recombinant human integrin alpha 11 beta 1 (α11β1) (human, UniProt Q9UKX5 23-1141; P05556 21-728).
T2 construct: Coated in ELISA; also called human α11β1; soluble human α11β1
Kind of test: ELISA on plate-coated recombinant human α11β1, OD 450nm. How it is done:
0.25 μg/mL of target antigen (recombinant human or mouse α11β1) was plated in a 96-well plate over night at 4° C. Plates were washed (PBS with 0.1% Tween-20), blocked (PBS with 2% BSA and 0.05% Tween-20) for 1 hour at room temperature and incubated with a range of antibody concentrations for 1 hour at room temperature. Subsequently, plates were washed and incubated with biotinylated anti-rabbit/mouse/human IgG in a 1:1000 dilution buffer and incubated for 1 hour at room temperature. After washing the plates, Streptavidin HRP was added at 1:200 in dilution buffer and incubated for 1 hour at room temperature. Ultra TMB ELISA substrate solution was added and the plates incubated for 5 minutes on a plate shaker. The reaction was stopped by adding stop solution to each well and plates were read at 450 nm.

The target of test [3] is α11β1 on CHO-K1 cells stably expressing human α11 (CHO-K1 hu α11) (human, UniProt Q9UKX5 23-1188). Kind of test: cell-based or functional assay.
Chain of α11β1 on CHO-K1 cells stably expressing human α11 (CHO-K1 hu α11) (Q9UKX5 23-1188): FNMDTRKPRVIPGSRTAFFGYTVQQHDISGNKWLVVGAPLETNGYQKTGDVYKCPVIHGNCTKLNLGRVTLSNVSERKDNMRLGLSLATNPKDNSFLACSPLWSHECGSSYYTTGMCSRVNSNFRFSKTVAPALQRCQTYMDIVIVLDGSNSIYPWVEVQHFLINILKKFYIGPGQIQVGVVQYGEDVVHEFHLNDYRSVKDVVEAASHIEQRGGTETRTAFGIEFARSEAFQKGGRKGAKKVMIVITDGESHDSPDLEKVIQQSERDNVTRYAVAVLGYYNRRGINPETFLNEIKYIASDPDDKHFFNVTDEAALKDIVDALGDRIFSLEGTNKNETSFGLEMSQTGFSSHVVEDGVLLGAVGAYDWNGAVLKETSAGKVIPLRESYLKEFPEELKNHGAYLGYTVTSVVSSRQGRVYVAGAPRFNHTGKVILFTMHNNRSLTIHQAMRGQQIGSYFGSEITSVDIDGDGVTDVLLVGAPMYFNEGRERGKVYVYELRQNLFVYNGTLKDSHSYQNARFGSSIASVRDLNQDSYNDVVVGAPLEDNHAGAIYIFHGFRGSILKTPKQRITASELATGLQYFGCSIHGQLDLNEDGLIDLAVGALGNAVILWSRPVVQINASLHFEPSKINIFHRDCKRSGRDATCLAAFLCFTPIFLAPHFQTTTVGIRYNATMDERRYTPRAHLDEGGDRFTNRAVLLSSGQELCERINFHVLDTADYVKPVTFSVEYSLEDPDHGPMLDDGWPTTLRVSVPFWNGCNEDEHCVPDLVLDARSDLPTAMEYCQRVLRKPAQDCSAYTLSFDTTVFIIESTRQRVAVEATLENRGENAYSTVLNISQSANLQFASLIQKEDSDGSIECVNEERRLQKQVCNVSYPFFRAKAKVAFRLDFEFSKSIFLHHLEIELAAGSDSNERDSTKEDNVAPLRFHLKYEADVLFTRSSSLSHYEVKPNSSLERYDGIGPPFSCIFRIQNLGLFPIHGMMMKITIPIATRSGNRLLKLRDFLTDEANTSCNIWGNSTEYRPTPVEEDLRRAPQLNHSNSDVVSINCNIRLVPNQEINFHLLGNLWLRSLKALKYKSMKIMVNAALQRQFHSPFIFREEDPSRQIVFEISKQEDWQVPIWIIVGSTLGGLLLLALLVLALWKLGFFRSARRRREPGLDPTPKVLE
For test [4], the target named is T2, recombinant human integrin alpha 11 …. Kind of test: SPR (Biacore T200), HIS-tagged human α11β1 captured by anti-HIS antibody, single-cycle kinetics, 1:1 Langmuir fit. How it is done:
The affinity of antibodies for human α11β1 was measured by surface plasmon resonance assay (SPR). Affinity was measured at pH 7.6 and 25° C. with a Biacore T200 instrument. Anti-HIS antibody was immobilized on the SPR sensor surface using EDC/NHS covalent attachment. HIS-tagged human α11β1 was captured on the sensor surface and a single-cycle kinetics assay was used. Increasing concentrations of test antibody were injected in series over the sensor-bound α11β1. Dissociation was monitored for 1000 seconds. A sensor surface with only anti-HIS antibody and a series of blank injections were used to double-reference subtract the data. A 1:1 Langmuir model was fit to the data to estimate the kinetic association and dissociation constants. The affinity (equilibrium dissociation constant) of the interaction was calculated by dividing the kinetic dissociation constant by the kinetic association constant. Between injection cycles α11β1 and bound antibody were removed with an injection of 10 mM glycine at pH 1.5.
The binding affinity of antibodies for the α11β1 Headpiece and α11β1 I Domain as measured by SPR is shown in FIG. 10A and FIG. 10B, respectively.
On the technique in general: In SPR one partner is held on a chip, and binding of the other changes the refractive index at the surface.

T2 sequence (Q9UKX5 23-1141 limits assumed, chain 1 of 2): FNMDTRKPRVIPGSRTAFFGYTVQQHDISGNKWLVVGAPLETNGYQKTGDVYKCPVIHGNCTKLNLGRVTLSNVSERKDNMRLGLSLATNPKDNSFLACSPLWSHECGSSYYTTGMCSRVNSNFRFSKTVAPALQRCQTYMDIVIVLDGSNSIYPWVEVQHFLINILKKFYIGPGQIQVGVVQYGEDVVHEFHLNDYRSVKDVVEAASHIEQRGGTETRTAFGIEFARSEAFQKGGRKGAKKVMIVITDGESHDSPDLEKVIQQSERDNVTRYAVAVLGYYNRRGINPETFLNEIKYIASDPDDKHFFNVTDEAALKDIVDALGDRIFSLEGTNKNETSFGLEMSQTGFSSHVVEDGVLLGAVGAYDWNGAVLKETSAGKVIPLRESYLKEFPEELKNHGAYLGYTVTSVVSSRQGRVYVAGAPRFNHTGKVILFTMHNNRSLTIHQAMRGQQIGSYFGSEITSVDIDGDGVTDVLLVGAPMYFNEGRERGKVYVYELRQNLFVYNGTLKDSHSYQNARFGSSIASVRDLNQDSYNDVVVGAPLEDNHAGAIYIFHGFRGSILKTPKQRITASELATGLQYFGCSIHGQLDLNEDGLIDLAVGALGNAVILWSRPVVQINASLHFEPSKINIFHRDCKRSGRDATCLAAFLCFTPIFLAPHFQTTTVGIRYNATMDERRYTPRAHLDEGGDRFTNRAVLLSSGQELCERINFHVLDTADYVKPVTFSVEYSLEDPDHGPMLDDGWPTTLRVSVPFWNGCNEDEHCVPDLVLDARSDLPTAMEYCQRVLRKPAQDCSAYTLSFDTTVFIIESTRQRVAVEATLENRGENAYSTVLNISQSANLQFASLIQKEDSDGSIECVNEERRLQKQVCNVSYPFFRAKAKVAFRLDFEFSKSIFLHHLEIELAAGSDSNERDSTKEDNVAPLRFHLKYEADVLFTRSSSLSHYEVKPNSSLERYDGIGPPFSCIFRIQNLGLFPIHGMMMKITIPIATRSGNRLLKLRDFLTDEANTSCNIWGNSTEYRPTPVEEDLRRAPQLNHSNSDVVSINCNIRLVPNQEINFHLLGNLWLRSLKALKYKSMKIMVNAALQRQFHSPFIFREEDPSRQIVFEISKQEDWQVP
T2 sequence (P05556 21-728 limits assumed, chain 2 of 2): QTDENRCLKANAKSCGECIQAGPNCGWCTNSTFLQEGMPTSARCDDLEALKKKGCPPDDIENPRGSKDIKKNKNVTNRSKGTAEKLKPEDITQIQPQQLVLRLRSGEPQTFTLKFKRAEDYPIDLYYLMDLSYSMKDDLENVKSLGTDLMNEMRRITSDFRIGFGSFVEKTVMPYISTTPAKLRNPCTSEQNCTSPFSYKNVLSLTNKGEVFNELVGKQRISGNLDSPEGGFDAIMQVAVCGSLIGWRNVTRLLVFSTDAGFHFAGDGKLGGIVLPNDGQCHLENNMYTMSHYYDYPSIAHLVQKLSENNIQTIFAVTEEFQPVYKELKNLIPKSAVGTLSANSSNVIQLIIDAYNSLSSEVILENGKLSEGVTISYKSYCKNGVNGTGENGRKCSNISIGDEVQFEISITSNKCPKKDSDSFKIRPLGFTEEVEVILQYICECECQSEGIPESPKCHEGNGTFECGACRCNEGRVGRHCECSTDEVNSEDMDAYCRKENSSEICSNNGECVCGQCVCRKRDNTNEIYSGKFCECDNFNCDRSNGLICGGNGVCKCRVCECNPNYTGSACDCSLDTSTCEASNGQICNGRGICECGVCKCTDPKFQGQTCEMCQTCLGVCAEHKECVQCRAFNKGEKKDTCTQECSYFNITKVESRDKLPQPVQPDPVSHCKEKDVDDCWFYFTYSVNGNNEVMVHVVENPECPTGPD
T1 sequence (Q9UKX5 23-1188, chain 1 of 2): as the sequence (Q9UKX5 23-1188) above
T1 sequence (P05556 21-798, chain 2 of 2): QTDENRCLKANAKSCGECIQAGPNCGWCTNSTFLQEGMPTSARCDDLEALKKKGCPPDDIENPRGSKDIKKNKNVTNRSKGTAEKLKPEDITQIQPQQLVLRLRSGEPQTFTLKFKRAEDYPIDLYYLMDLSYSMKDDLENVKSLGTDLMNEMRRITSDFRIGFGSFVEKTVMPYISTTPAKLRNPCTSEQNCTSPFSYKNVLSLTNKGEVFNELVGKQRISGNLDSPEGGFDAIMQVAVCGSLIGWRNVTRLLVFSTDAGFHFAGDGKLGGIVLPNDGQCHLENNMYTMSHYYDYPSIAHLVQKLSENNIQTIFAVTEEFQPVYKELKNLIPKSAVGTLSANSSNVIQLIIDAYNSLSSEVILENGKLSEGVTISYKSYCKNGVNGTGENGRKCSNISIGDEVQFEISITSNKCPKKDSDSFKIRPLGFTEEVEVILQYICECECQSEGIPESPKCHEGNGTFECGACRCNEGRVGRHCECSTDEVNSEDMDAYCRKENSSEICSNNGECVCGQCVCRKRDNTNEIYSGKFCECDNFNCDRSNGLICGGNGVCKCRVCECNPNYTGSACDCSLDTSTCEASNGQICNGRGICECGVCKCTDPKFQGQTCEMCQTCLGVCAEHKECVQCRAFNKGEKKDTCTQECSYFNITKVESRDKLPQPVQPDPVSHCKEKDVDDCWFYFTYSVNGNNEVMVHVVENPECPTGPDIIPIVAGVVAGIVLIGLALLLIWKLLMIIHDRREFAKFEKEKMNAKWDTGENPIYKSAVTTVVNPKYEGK

B1: 8-J17 (antibody, V domains shown)
VH: QVQLQQSGAELAKPGASVKMSCKASGYTFTNYWMHWVKQRPGQGLEWIGYINPNNGYTEYNQRFKDKATLTADRSSTTAYMQLSSLTSEDSAVYYCARSDIITTDYWGQGTTLTVSS
VL: DVVMTQTPLSLPVSLGDQASISCRSSQSLVYSNGNTYLHWYLQKPGQSPKLLIYKVSNRFSGVPDRFSGSGSGTDFTLKISRVEAEDLGVYFCSQSTHVPWTFGGGTKLEIK
notes: mouse hybridoma IgG
Turning to B1, the binding result in test [1] and in test [2] was “binds” in each case.

B2: A11B1_16E10 (antibody, V domains shown)
VH: QSLEESGGDLVKPGASLTLTCRVSGFSFSSSYYMCWVRQAPGKGLEWIACIGTTRGSTYYATWAKGRFTISKISSTTVTLQMTSLTDADTATYFCARDATGYRINTIGLYFNLWGPGTLVTVSS
VL: AFELTQTPSSVEAAVGGTPTIKCQASQTIYSYLSWYQQKPGQPPKLLIYEASKLASGVPSRFSGSGSGTDYTLTISDLECADAATYYCQSYHGTASTEYNTFGGGTEVVVRG
notes: rabbit monoclonal, recombinantly produced in HEK cells; full chains
In the case of B2, the “IC50, inhibition of adhesion of CHO-α11 cells to type I collagen, dose curve” value in test [3] was 0.39 nM. For the same molecule, in test [4], the off-rate (koff) was 0.000224 s⁻¹ and the on-rate (kon) was 4.68e+06 M⁻¹ s⁻¹.

As usually defined, the koff is the rate constant with which the complex falls apart. As a reminder, the kon is a measure of how fast the partners come together.
